The text below walks through data of US5217867.

In series [1] the target is G-gal-G (hGR with DNA binding domain replaced by GAL4 1-74) (Homo sapiens / Saccharomyces cerevisiae) (UniProt P04150+P04386). Put plainly: cell_activity.
The target in series [2] is GAL4 (Saccharomyces cerevisiae) (UniProt P04386). Briefly: cell_activity. To be noted: CAT reporter.
The test system of series [3] is hGR delta450-487 deletion between residues 450 and 487 (printed positions are the non-deleted junction residues) (Homo sapiens). Briefly: pulldown. To be noted: relative to hGR-SB.
Series [4] deals with hGR G479 479 to Gly (Homo sapiens). Put plainly: pulldown. To be noted: relative to hGR-SB.
Series [5] relates to hGR G433 433 to Gly (Homo sapiens). Briefly: pulldown. Particulars: relative to hGR-SB.
Series [6] concerns hGR G467 467 to Gly (Homo sapiens). Put plainly: pulldown. To be noted: relative to hGR-SB; may be unstable in vitro.
Series [7] relates to hGR G460 460 to Gly (Homo sapiens). Put plainly: pulldown. Particulars: relative to hGR-SB.
Series [8] concerns hGR G470 470 to Gly (Homo sapiens). Briefly: pulldown. Particulars: relative to hGR-SB.
Series [9] has as its system hGR G441 441 to Gly (Homo sapiens). Put plainly: pulldown. To be noted: relative to hGR-SB.
Series [10] relates to hGR G444 444 to Gly (Homo sapiens). Briefly: pulldown. To be noted: relative to hGR-SB.
Series [11] relates to hGR G471 471 to Gly (Homo sapiens). Put plainly: pulldown. To be noted: relative to hGR-SB.
The subject of series [12] is hGR G457 457 to Gly (Homo sapiens). Briefly: pulldown. To be noted: relative to hGR-SB.
Series [13] relates to hGR G432 432 to Gly (Homo sapiens). Put plainly: pulldown. Particulars: relative to hGR-SB.
Series [14] concerns hGR G473 473 to Gly (Homo sapiens). Put plainly: pulldown. To be noted: relative to hGR-SB.
Series [15] has as its system hGR G453 453 to Gly (Homo sapiens). Put plainly: pulldown. To be noted: relative to hGR-SB.
Series [16] concerns hGR G465 465 to Gly (Homo sapiens). Briefly: pulldown. Particulars: relative to hGR-SB.
Series [17] concerns hGR G476 476 to Gly (Homo sapiens). Put plainly: pulldown. Particulars: relative to hGR-SB.
The test system of series [18] is hGR G424 424 to Gly (Homo sapiens). Briefly: pulldown. Particulars: relative to hGR-SB.
Series [19] has as its system hGR-SB (human glucocorticoid receptor, wild-type equivalent) (Homo sapiens). Briefly: pulldown. To be noted: immunoprecipitation DNA binding, reference.
Series [20] has as its system hGR G480 480 to Gly (Homo sapiens). Put plainly: pulldown. To be noted: relative to hGR-SB.
Series [21] deals with hGR G450 450 to Gly (Homo sapiens). Briefly: pulldown. Particulars: relative to hGR-SB.
Series [22] relates to hGR G421 421 to Gly (Homo sapiens). Put plainly: pulldown. To be noted: relative to hGR-SB.
The subject of series [23] is hGR G455 455 to Gly (Homo sapiens). Put plainly: pulldown. Particulars: relative to hGR-SB; may be unstable in vitro.
The test system of series [24] is hGR G431 C431G (Homo sapiens). Put plainly: pulldown. To be noted: relative to hGR-SB.
Series [25] has as its system hGR G474 474 to Gly (Homo sapiens). Briefly: pulldown. To be noted: relative to hGR-SB.
The subject of series [26] is hGR G481 481 to Gly (Homo sapiens). Put plainly: pulldown. Particulars: relative to hGR-SB.
Series [27] relates to hGR G463 463 to Gly (Homo sapiens). Put plainly: pulldown. To be noted: relative to hGR-SB.
Series [28] has as its system hGR G462 462 to Gly (Homo sapiens). Briefly: pulldown. To be noted: relative to hGR-SB.
For series [29], the system named is hGR G438 438 to Gly (Homo sapiens). Briefly: pulldown. Particulars: relative to hGR-SB.
The test system of series [30] is hGR G442 K442G (Homo sapiens). Briefly: pulldown. To be noted: relative to hGR-SB; binds but transcriptionally inactive.
Series [31] has as its system hGR G426 D426G (Homo sapiens). Briefly: pulldown. To be noted: relative to hGR-SB.
Series [32] relates to hGR G486 486 to Gly (Homo sapiens). Briefly: pulldown. To be noted: relative to hGR-SB; may be unstable in vitro (10% activity in cells).
The subject of series [33] is hGR G447 447 to Gly (Homo sapiens). Briefly: pulldown. Particulars: relative to hGR-SB.
Series [34] has as its system hGR delta420-451 deletion between residues 420 and 451 (printed positions are the non-deleted junction residues) (Homo sapiens). Briefly: pulldown. Particulars: relative to hGR-SB.
Series [35] concerns hGR G423 423 to Gly (Homo sapiens). Put plainly: pulldown. Particulars: relative to hGR-SB.
Series [36] has as its system hGR G437 437 to Gly (Homo sapiens). Briefly: pulldown. Particulars: relative to hGR-SB.
Series [37] deals with hGR G446 446 to Gly (Homo sapiens). Put plainly: pulldown. To be noted: relative to hGR-SB; may be unstable in vitro.
The test system of series [38] is hGR G445 445 to Gly (Homo sapiens). Put plainly: pulldown. To be noted: relative to hGR-SB.
Series [39] relates to hGR G477 477 to Gly (Homo sapiens). Briefly: pulldown. Particulars: relative to hGR-SB.
The subject of series [40] is rTRalpha-Bm+ (rat thyroid hormone receptor alpha) BamHI linker at amino acid 21 (Rattus norvegicus), P63059-2. Put plainly: cell_activity. Particulars: TRE-CAT, T3; which TRE (rGH or palindromic) not stated.

G-gal-G (hGR with DNA binding domain replaced by GAL4 1-74) (Homo sapiens / Saccharomyces cerevisiae), sequence (P04150 other isoform, or with tags, fused parts or gaps, chain 1 of 2): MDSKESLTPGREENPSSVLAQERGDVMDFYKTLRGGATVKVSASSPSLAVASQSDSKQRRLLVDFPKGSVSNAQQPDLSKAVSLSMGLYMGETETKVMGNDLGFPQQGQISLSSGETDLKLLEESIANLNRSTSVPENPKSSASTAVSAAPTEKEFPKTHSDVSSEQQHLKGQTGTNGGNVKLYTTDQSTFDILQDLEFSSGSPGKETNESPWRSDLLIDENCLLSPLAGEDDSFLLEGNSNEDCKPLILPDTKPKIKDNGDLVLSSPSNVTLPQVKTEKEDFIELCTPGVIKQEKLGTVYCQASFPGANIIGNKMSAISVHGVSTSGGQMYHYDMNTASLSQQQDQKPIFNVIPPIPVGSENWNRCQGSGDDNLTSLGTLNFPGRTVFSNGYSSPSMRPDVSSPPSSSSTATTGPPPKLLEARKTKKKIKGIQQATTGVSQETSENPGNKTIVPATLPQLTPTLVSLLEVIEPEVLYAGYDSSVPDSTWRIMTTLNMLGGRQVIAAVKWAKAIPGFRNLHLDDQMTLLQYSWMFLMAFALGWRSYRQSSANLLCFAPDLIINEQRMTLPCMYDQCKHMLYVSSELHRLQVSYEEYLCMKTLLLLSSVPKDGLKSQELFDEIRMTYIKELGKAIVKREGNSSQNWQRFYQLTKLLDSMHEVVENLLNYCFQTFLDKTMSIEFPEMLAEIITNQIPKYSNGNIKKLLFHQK
G-gal-G (hGR with DNA binding domain replaced by GAL4 1-74) (Homo sapiens / Saccharomyces cerevisiae), sequence (P04386 1-74, chain 2 of 2): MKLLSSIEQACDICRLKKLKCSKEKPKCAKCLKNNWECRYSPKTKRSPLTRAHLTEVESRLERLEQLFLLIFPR
rTRalpha-Bm+ (rat thyroid hormone receptor alpha) BamHI linker at amino acid 21 (Rattus norvegicus), P63059-2, sequence (P63059 whole entry, looked up): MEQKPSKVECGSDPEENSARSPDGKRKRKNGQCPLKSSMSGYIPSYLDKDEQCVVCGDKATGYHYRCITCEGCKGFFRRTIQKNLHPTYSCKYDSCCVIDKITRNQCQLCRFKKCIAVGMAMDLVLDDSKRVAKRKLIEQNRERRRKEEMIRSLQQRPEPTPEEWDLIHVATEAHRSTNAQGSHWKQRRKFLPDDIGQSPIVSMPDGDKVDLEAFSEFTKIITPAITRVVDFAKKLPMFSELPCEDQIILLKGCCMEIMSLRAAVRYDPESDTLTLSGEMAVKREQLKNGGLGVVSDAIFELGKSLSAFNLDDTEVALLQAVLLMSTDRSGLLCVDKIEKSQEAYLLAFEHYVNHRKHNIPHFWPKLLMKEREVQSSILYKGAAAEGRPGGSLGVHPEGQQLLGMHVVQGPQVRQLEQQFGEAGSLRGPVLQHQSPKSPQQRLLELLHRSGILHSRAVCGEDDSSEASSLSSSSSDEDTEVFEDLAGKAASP
GAL4 (Saccharomyces cerevisiae), sequence (P04386 whole entry, the tested form may be a part): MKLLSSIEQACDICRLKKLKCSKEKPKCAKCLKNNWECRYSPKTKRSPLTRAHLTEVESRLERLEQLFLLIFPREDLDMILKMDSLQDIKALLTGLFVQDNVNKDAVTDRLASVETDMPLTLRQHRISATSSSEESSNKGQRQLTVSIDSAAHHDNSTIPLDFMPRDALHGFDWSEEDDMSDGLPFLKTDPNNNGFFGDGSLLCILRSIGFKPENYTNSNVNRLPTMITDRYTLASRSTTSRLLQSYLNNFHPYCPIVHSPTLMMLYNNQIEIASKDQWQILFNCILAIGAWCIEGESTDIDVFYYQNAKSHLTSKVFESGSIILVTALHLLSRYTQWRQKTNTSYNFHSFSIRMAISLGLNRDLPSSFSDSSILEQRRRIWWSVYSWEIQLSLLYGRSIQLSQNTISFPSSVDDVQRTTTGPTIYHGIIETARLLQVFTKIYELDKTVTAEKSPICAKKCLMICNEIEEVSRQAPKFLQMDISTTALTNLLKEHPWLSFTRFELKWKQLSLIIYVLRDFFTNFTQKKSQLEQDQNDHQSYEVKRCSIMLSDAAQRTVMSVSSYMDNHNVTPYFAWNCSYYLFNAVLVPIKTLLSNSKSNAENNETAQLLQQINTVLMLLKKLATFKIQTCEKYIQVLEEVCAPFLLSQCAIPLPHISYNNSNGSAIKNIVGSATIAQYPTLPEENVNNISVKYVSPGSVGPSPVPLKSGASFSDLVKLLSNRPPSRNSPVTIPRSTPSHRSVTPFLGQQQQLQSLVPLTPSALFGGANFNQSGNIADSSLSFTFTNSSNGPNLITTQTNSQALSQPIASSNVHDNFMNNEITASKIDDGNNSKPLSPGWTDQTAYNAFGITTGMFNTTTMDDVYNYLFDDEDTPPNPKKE

On to “deltaMTV-GAL-CAT promoter with synthetic GAL4 site 17MX”, for which the activity in [1] (with hormone) was 500 fold; in series [2] it was 20 fold.
For the substance “deltaMTV-CAT promoter (no GAL4 site, GREs deleted)”, the activity in series [1] (relative to deltaMTV-GAL-CAT, possible cryptic site) amounted to 5%.
With GRE-containing DNA fragment, the binding signal is 1% in series [3]; 40% in series [4]; 1% in series [5]; 6% in [6]; 90% in series [7]; 4% in [8]. The binding signal in series [9] was less than 1%; in series [10] it was 1%; in series [11] it was 6%; in [12] it was 2%; in series [13] it was 30%; in series [14], less than 1%. For the same substance, the binding signal in series [15] was 60%; in series [16], 1%; in series [17], less than 1%; in series [18], 1%; in series [19] it was 100%; in series [20] it was 50%. In addition, the binding signal is 50% in series [21]; less than 1% in series [22]; 6% in series [23]; 10% in series [24]; 95% in [25]; 3% in [26]. The binding signal in [27] is 1%; in series [28], 40%; in series [29], less than 1%; in series [30], 60%; in series [31], 75%; in series [32], 1%. Further, the binding signal is 2% in series [33]; 1% in [34]; less than 1% in series [35]; 8% in series [36]; 6% in [37]; less than 1% in series [38]. In series [39], this substance showed a binding signal of 1%.
The substance “TCAGGTCATGACCTGA (double strand) [TRE of TRE-CAT reporter (palindromic TRE)]” came in with an activity in series [40] of 100%.
